Reference: patent US20230250190A1 (published 2023)
Where a chain is given by its changes, count along the chain named.

B1: 174 (antibody, V domains shown)
VH: EVQLVESGAEVKKPGASVKVSCKASGYTFNRYYLHWVRQAPGQGLEWMGVINPYDGSTNYAQKFRGRITMTRDTSTNTVYMELSSLRSEDTAVYFCARDAMEGDSYFDKWGQGTLVTVSS
B2: 13 (antibody, V domains shown)
VH: QVQLVQSGAEVKKPGASLKVSCKASGYTFTNYYIQWVRQAPGQGLEWMGVINPYDGSTNYAQKFQGRVTLTRDTSTTTVYMELSSLRSDDTAVYYCARDYMIGYVVFDYWGQGTLVTVSS
B3: SEQ ID NO 5 (bivalent monospecific MUC1 IgG) (antibody, V domains shown)
VH: B2 VH with L18V, A24T, N31R, L70V, T77F, D89E, I102R, V106I
VL: not shown
B4: 198 (antibody, V domains shown)
VH: B2 VH with L18V, T30I, Y32N, T58I, N59H, D89E, D108E
B5: 106 (antibody, V domains shown)
VH: B2 VH with V11M, L18V, V20I, K63R, D89E, Y109F
B6: 194 (antibody, V domains shown)
VH: B2 VH with A16T, L18V, K23T, M48L, N59D, D89E, I102L, Y109F
B7: 150 (antibody, V domains shown)
VH: B2 VH with K13T, L18V, G44A, N59H, E82D, D89E, T91A, I102L
B8: SEQ ID NO 178 (bivalent monospecific MUC1 IgG) (antibody, V domains shown)
VH: QVQLVQSGAEVKKPGASVKVSCKASGYTFNRHYIQWVRQAPGQGLEWMGTINPYDGSTFYAQKFQDRVTMTRDTSTSTVYMDLNSLKSEDTAVYYCARDYMRGHVLFDYWGQGTLVTVSS
VL: not shown
B9: 74 (antibody, V domains shown)
VH: QVQLVQSGAEVKKPGASVQVSCKASGYTFINYYLQWVRQAPGQGLEWMGTINPFDGSTHYEQNFQGRVTMTRDTSTNTVYMELNGLRSEDTAVYYCARDHMIGYILFDYWGQGTTVTVSS
B10: 170 (antibody, V domains shown)
VH: B9 VH with E61A, N63K, G85S, H100R, I105V, T115L
B11: 25 (antibody, V domains shown)
VH: QVQLVESGAEVKKPGASVKVSCKASGYTFARYYVHWVRQAPGQGLEWMGLINPYGGATNYAQNFQGRVTMTRDTSTSTVYMELSSLRSEDTAVYYCARDAMGGDSYFDYWGQGTLVTVSS
B12: 162 (antibody, V domains shown)
VH: QVQLVQSGAEVKKPGASVMLSCKASGYIFTSYYIQWVRQAPGQGLEWMGVVNPYDGSTNYAQKFQGRVTITRDTSTSTVFMELSSLRSEDTAVYYCARDNMLGHVIFDFWGQGTLVTVSS
B13: 86 (antibody, V domains shown)
VH: QVQLVQSGAEVKKPGASVKVSCKASGYPFINYYIQWVRQAPGQGLEWMGVINPFDGSTNYAQKFQGRVTVTRDTSTSTVFMDLSSLRSEDTAVYYCARDNMIGYVLFDYWGQGTLVTVSS
B14: 33 (antibody, V domains shown)
VH: B13 VH with K19R, G66D, F107L
B15: 90 (antibody, V domains shown)
VH: B13 VH with P28T, Y32H, Q35H, M81L
B16: SEQ ID NO 29 (bivalent monospecific MUC1 IgG) (antibody, V domains shown)
VH: B13 VH with P28S, N31H, Q35H, G66D, Y109D
VL: not shown
B17: 82 (antibody, V domains shown)
VH: B13 VH with P28T, I30T, N31S, Q35H, F54Y, G56S, V70M
B18: SEQ ID NO 45 (bivalent monospecific MUC1 IgG) (antibody, V domains shown)
VH: B13 VH with Q6E, A9T, P28S, N31H, Q35H, Q43R, Y60S, K63N, I102L, Y109H
VL: not shown
B19: SEQ ID NO 57 (bivalent monospecific MUC1 IgG) (antibody, V domains shown)
VH: B13 VH with Q6E, A9T, P28S, N31H, Q35H, Q43R, K63N, Y109H
VL: not shown
B20: SEQ ID NO 78 (bivalent monospecific MUC1 IgG) (antibody, V domains shown)
VH: B13 VH with A16T, P28S, N31H, Q35H, M48V, T78A
VL: not shown
B21: 206 (antibody, V domains shown)
VH: B13 VH with K19R, S84N, N100S, Y109F
B22: 102 (antibody, V domains shown)
VH: QVQLVQSGAEVKKSGASVKVSCKASGYPFISYYIHWLRQAPGQGLTWMGVINPFDGSTDYAQKFQGRVTVTRDTSTSTVYMDLSSLRADDTAIYYCARDYMRGYVVFDYWGQGTLVTVSS
B23: 146 (antibody, V domains shown)
VH: QVQLVQSGAEVKKPGASVKVSCKASGYAFTSYYIHWVRQAPGQGLEWMGVINPYGGSTNYAQKFQGRVTMTRDTSTRIVYMDLSSLRSEDTAVYYCARDAMEGDSYFDYWGQGTLVTVSS
B24: 37 (antibody, V domains shown)
VH: QVQLVQSGAEVKKPGASVTVSCKTSGYTFTSYYIHWLRQAPGQGLEWMGVINPFGGATNYAQKFQGRVTMTRDTSTITVYMELSSLRSEDTAVYYCARDAMGGDSHFDHWGRGTLVTVSS

Biological target: T1, T9 (Tn-MUC1) (PAPGSTAPPAHGVT(α-GalNAc)S(α-GalNAc)APDTRPAPG-OH)
T1 peptide: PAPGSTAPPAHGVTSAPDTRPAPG
Test: glycopeptide array

Row | Binder | EC50 [µg/mL]
1 | B1 | 0.144
2 | B2 | 0.134
3 | B3 | 0.113
4 | B4 | 0.121
5 | B5 | 0.032
6 | B6 | 0.082
7 | B7 | 0.098
8 | B8 | 0.09
9 | B9 | 0.096
10 | B10 | 0.127
11 | B11 | 0.119
12 | B12 | 0.037
13 | B13 | 0.05
14 | B14 | 0.071
15 | B15 | 0.102
16 | B16 | 0.118
17 | B17 | 0.167
18 | B18 | 0.083
19 | B19 | 0.109
20 | B20 | 0.032
21 | B21 | 0.066
22 | B22 | 0.102
23 | B23 | 0.086
24 | B24 | 0.13

Biological target: T2, T11 (Tn-MUC1) (PAPGSTAPPAHGVT(α-GalNAc)SAPDT(α-GalNAc)RPAPG-OH)
T2 peptide: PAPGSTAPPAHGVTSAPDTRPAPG
Test: glycopeptide array

Row | Binder | EC50 [µg/mL]
25 | B1 | 0.192
26 | B2 | 0.158
27 | B3 | 0.127
28 | B4 | 0.137
29 | B5 | 0.043
30 | B6 | 0.109
31 | B7 | 0.157
32 | B8 | 0.108
33 | B9 | 0.137
34 | B10 | 0.141
35 | B11 | 0.129
36 | B12 | 0.063
37 | B13 | 0.068
38 | B14 | 0.088
39 | B15 | 0.126
40 | B16 | 0.126
41 | B17 | 0.227
42 | B18 | 0.093
43 | B19 | 0.123
44 | B20 | 0.041
45 | B21 | 0.088
46 | B22 | 0.111
47 | B23 | 0.116
48 | B24 | 0.158

Biological target: T3, T4 (Tn-MUC1) (PAPGSTAPPAHGVT(α-GalNAc)SAPDTRPAPG-OH)
T3 peptide: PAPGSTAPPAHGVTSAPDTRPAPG
Test: glycopeptide array

Row | Binder | EC50 [µg/mL]
49 | B1 | 0.178
50 | B2 | 0.153
51 | B3 | 0.116
52 | B4 | 0.111
53 | B5 | 0.037
54 | B6 | 0.1
55 | B7 | 0.126
56 | B8 | 0.103
57 | B9 | 0.111
58 | B10 | 0.116
59 | B11 | 0.1
60 | B12 | 0.037
61 | B13 | 0.057
62 | B14 | 0.076
63 | B15 | 0.118
64 | B16 | 0.104
65 | B17 | 0.145
66 | B18 | 0.084
67 | B19 | 0.112
68 | B20 | 0.034
69 | B21 | 0.068
70 | B22 | 0.087
71 | B23 | 0.081
72 | B24 | 0.157

Biological target: T4, T8 (Tn-MUC1) (PAPGST(α-GalNAc)APPAHGVTSAPDT(α-GalNAc)RPAPG-OH)
T4 peptide: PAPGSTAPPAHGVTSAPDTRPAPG
Test: glycopeptide array

Row | Binder | EC50 [µg/mL]
73 | B1 | 0.174
74 | B2 | 0.145
75 | B3 | 0.123
76 | B4 | 0.121
77 | B5 | 0.036
78 | B6 | 0.099
79 | B7 | 0.135
80 | B8 | 0.095
81 | B9 | 0.118
82 | B10 | 0.123
83 | B11 | 0.113
84 | B12 | 0.043
85 | B13 | 0.061
86 | B14 | 0.079
87 | B15 | 0.12
88 | B16 | 0.121
89 | B17 | 0.196
90 | B18 | 0.088
91 | B19 | 0.114
92 | B20 | 0.032
93 | B21 | 0.084
94 | B22 | 0.101
95 | B23 | 0.104
96 | B24 | 0.144

Biological target: T5, T3 (Tn-MUC1) (PAPGST(α-GalNAc)APPAHGVTSAPDTRPAPG-OH)
T5 peptide: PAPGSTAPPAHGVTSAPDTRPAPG
Test: glycopeptide array

Row | Binder | EC50 [µg/mL]
97 | B5 | 99.3
98 | B11 | 38.6
99 | B18 | 52.2
100 | B20 | 37.9

Biological target: T6, S4 (sTn-MUC1) (PAPGSTAPPAHGVT(Neu5Ac-α(2-6)-GalNAc)SAPDTRPAPG-OH)
T6 peptide: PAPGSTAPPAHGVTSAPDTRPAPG
Test: glycopeptide array

Row | Binder | EC50 [µg/mL]
101 | B2 | 0.156
102 | B3 | 0.12
103 | B8 | 0.098
104 | B13 | 0.074
105 | B15 | 0.126
106 | B16 | 0.118
107 | B17 | 0.173
108 | B18 | 0.089
109 | B19 | 0.119
110 | B20 | 0.039

Biological target: T7, S9 (sTn-MUC1) (PAPGSTAPPAHGVT(Neu5Ac-α(2-6)-GalNAc)S(Neu5Ac-a(2-6)-GalNAc)APDTRPAPG-OH)
T7 peptide: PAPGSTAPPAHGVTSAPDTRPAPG
Test: glycopeptide array

Row | Binder | EC50 [µg/mL]
111 | B2 | 0.279
112 | B3 | 0.137
113 | B8 | 0.108
114 | B13 | 0.105
115 | B15 | 0.207
116 | B16 | 0.22
117 | B17 | 0.83
118 | B18 | 0.135
119 | B19 | 0.16
120 | B20 | 0.067

Biological target: T8, S11 (sTn-MUC1) (PAPGSTAPPAHGVT(Neu5Ac-α(2-6)-GalNAc)SAPDT(Neu5Ac-a(2-6)-GalNAc)RPAPG-OH)
T8 peptide: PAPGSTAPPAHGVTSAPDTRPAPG
Test: glycopeptide array

Row | Binder | EC50 [µg/mL]
121 | B3 | 0.296
122 | B8 | 0.335
123 | B13 | 13.1
124 | B15 | 67.4
125 | B16 | 6.96
126 | B17 | 58.6
127 | B18 | 4.06
128 | B19 | 0.939
129 | B20 | 0.477
